Data: the nanobody polyreactivity screen of Harvey et al. (2022)

Test: yeast display, Sf9 membrane polyspecificity reagent, FACS + sequencing; frameworks hold sequencing errors
Outline: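 Using colony PCR, genes from sorted yeast display clones were amplified, then sequenced on MiSeq at 2 × 250 and filtered by CDR length. The clones had been stained with 10% biotinylated, detergent-solubilized Sf9 membrane reagent for 1 hour at 4 °C and sorted by FACS into low and high (top ~1%) gates on anti-HA and streptavidin fluorescence. Polyreactivity labels come from the gate of origin.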

| Sequence | polyreactivity (PSR sort gate) |
| --- | --- |
| QVQLVESGGGLVQAGGSLRLSCAASGFTFAYYAMGWYRQAPGKERELVAAITVSGASTYYADSVKGRFTISRDNAKNTVYLQMNSLKPEDTAVYYCNASSVSFYYLEPSQPMDYWGQGTQVTVSS | high polyreactivity |
| QVQHVESGGGLVQAGGSLRLSCAASGITFRVNAMGWYRQAPGKERELVASISRSGGSTYYADSVKGRFTISRDNAKNTVYLQMNSLKPEVTAVYYCAAAQKVLFYGRWFDYWGQCTQVTVSS | low polyreactivity |
| QFQLVESGGGVVQAPGSLRLSSAASGSLFTVYAMGWYRQAPGKERELVAAISYGGGSTYYADSVKGRFTISRDTAKNTVYLQMNSLKQEDTAVYYCAADPYYSYGYYHAHGRDVGYWGQGTQVTVSS | low polyreactivity |
| QVQLVESGGGLVQAGGSLRLSCAASGHIFYAYAMGWYRQAPGKERELVASITYRGVSTYYADSVKGRFTISRDNAKNTVYLQMNSLKPEDTAVYYCAAGRSRYLWFGRDFDYWGQGTQVTVSS | low polyreactivity |
| QVQLVESGGGLVQAGGSLRLSCAASGRTYVVYAMGWYRQAPGKERELVARFRWRDVSTYYADSVKGRFTISRDNAKNTVYLQMNSLKPEDSAVYYCAARSYTGGGRLYYWGQGTQVTVSS | high polyreactivity |
| QVQLVEAGGGFVQAGGSLRLSCAASGFTFDYYAMGSYRQAHGKERELVAAITLNGGSTYYADSVKGRFTISRDNAKNTVYLQMNSLKPEDPAVYYCAADGSGYYDWYYYWGHGTQVTVSS | low polyreactivity |
| QVQLVESGGGLVQAGGSLRLSCAASGRTFFVNAMGWYRQAPGKERELVAGISIGGRTSYADSVKGRFTISRDNAKNTVYLQMNSLKPEDTAVYYCATSYFPWSRKRYGYWGQGTQVTVSS | high polyreactivity |
| QVQLVESGGGLVQAGGSLRLSCAASGYTFVDNAMGRYRQAPGKERELVAAINWDGASTYADSVKGRFTISRDNAKNTVYLQMNSLKPEDTAVYYCTASGKDIFNYVYQGYDYWGQGTQVTVSS | low polyreactivity |
| QVQLVESGGGLVQAGGSLRLSCAASGSIFFDYAMGGYRQAPGKERELVAAINSGGTTNYADSVKGRFTISRDNAKNTVYLQMKQPETGRYRGLLLQRFPGYLRWYRWFDYWGQGTQVTVSS | low polyreactivity |
| QVQLVESWGGLVQAGGSLRLSCAASGSTFAGYAMGWYRQAPGKERELVAAIDWGGDSTYYADSVKGRFTISRDNAKNTVYLQMNSLKPEDTAVYYCAAYWYSRYDYDYWGQGTQVTVSS | low polyreactivity |
| QDQLVESGGGLVQAGGSLRLSCAASGRIFKFNAMGWYRPAPGKERELVAAITSGGSTNYADSVKGRFTLSRDNEKNTVYLQMNSLKREDTAVYYCAKSTPRFYPRGFYYWGHGTQVTVSS | low polyreactivity |
| QVQLVESGGGLVQAGGSLLLSCAASGLIFSWNAMGWYRQAPGKERELVASISYSGGRTYYADSVKGRFTISRDNAKNTVYLQMNSLKPEDTAVYYCAADTNATTDPEMDYWGQGTQVTVSS | low polyreactivity |
| QVQLVESGGGLVQAGGSLRLSCAASGSIFSSYVMGWYRQAPGKERELVAAMSRSGGSTYYADSVKGRFTISRDNAKNTVYLQMNSLKPEDTAVYYCAADWTRGSPGMDYWGQGTQVTVSS | high polyreactivity |
| QVQLVESGGGLVQAGGSLRLICAASGSYAMGWYRQAPGKERELVASIDGPGGSTYYADSVKGRFTISRDNAKNTVYLQMNSLKPEDTAVYYCEDWAPGLYDYWGQGTQVTVSS | low polyreactivity |
| EDQLEESGGGLVQAGGSLRLSCAASGLIFPSYVMGWYRQAPGKERELVASISRVGSTYADSVKGRFTISRDNAKNTVYLQMNSLKPEDTAVYYCAKQVVWRGFRGLDYWGQGTQVTLSS | high polyreactivity |
| QVQLVESGGGLVQAGGSLRLSCAASGRIFVSYAMGWYRQAPGKERELVAAISSSGGSTYYADSVKGRFTISRDNAKNTVYLQMNSLKPEDTAVYYCNTDQRSRMDYWGQGTQVTVSS | low polyreactivity |
| QVQLVESGGGLVQAGGSLRLSCAASGRTFRRNAMGWYREAPGKERELVASINRGGGKNYADSVKGRFTISRDNAKNTVYLQMNSLKPEDTAVYYCAAVPIAADKANGYDYWGQGTQVTVSS | low polyreactivity |
